Tested on: E. necator
Test: Leaf disc assay, dry inoculum (settling tower), decrease in disease severity / hyphal growth (Example 2)
Settings: decrease in disease severity (hyphal growth) relative to untreated control, value ± SE; for % decrease =/− SE TP1: time point 1 (untreated control hyphal growth ≥50%)

Molecule | % decrease =/− SE TP1 [%] | % decrease =/− SE TP2 (time point 2) [%]
GS3343 (nucleic acid) sense: CUAGCACUUACGAGCACGUCUCUUUGAAUUCAACUAGAGACUCACAAUUAUACCUUCCUCCUAUUAAAUCUUUAGUAUUGGAUACGAAAAAUGAGGGAAGUUAUUAGUGUUAAUGUUGGCCAAGCUGGGUGCCAAAUAGCAAACUCUUGCUGGGAGCUCUAUUGCCUUGAGCAUGGUAUACAGCCUGAUGGUUACUUAACGGAGAAGCGCAAGGCCGCCGAACCUGACGAAGGUUUCAGCACUUUUUUUUCAGAGACUGGUCAGGGAAAAUACGUACCUAGAACUAUUUAUUGUGAUCUUGAACCAAAUGUAGUCGAUGAAGUUCGUACGGGUACUUAUCGUAGCUUAUUCCACCCCGAGCAAAUGAUCACCGGAAAAGAAGAUGCAUCAAACAAUUA antisense: UAAUUGUUUGAUGCAUCUUCUUUUCCGGUGAUCAUUUGCUCGGGGUGGAAUAAGCUACGAUAAGUACCCGUACGAACUUCAUCGACUACAUUUGGUUCAAGAUCACAAUAAAUAGUUCUAGGUACGUAUUUUCCCUGACCAGUCUCUGAAAAAAAAGUGCUGAAACCUUCGUCAGGUUCGGCGGCCUUGCGCUUCUCCGUUAAGUAACCAUCAGGCUGUAUACCAUGCUCAAGGCAAUAGAGCUCCCAGCAAGAGUUUGCUAUUUGGCACCCAGCUUGGCCAACAUUAACACUAAUAACUUCCCUCAUUUUUCGUAUCCAAUACUAAAGAUUUAAUAGGAGGAAGGUAUAAUUGUGAGUCUCUAGUUGAAUUCAAAGAGACGUGCUCGUAAGUGCUAG | 7 ± 6 | 
GS3337 (nucleic acid) sense: UUUAUUAUGGCACUGGCGUGAAAAUACCUUAUCCCAAGGCAGAUACCGAUAAUGCGAGUGCUCAUGGAUAUACAAACAUUAAGGGCGGUAAUCCGGAAGGACGAGCUUUUCACCAUGGUAGACUAAUAUCUCAGCUCCGUAGAUGCUGCUCCCAGAACCCGAACAUCAAAAUUGUUGAAACGCUGGUUACAGAGACUAUUACGAAUCCUCAAACCCAAACUGUAAUUGGCGUAAGGUCAGAGACAAUGAAUGAUAAAACAGGCAAAAGAGAAGCCGACUACUAUUUGGGAGAUCUCACAAUUAUCGCCGAUGGAUAUGCAUCUAAAUUCCGAAAGCAGUAUAUAGACAAGUCACCCAUCGUAAAAAGCAAAUUCUAUGCUUUAGAGCUGAUAGAUU antisense: AAUCUAUCAGCUCUAAAGCAUAGAAUUUGCUUUUUACGAUGGGUGACUUGUCUAUAUACUGCUUUCGGAAUUUAGAUGCAUAUCCAUCGGCGAUAAUUGUGAGAUCUCCCAAAUAGUAGUCGGCUUCUCUUUUGCCUGUUUUAUCAUUCAUUGUCUCUGACCUUACGCCAAUUACAGUUUGGGUUUGAGGAUUCGUAAUAGUCUCUGUAACCAGCGUUUCAACAAUUUUGAUGUUCGGGUUCUGGGAGCAGCAUCUACGGAGCUGAGAUAUUAGUCUACCAUGGUGAAAAGCUCGUCCUUCCGGAUUACCGCCCUUAAUGUUUGUAUAUCCAUGAGCACUCGCAUUAUCGGUAUCUGCCUUGGGAUAAGGUAUUUUCACGCCAGUGCCAUAAUAAA | 19 ± 5 | 15 ± 7
GS3344 (nucleic acid) sense: GACUAUUGUCCUGACUAAACUAUAUACCAUCUGCUAACACGAUCCUCAAAGCAAAAUUUUUAACCGAUGAUCAUAAGUCAUGUAAAAGUUGAAAUUUCAACACACACCAAGAAAAAUAGCCUUGGUCUUUCAAUUUACAGCAUCCAUAUGGAUGCUAUUUUCUUAUAUAUUUCACCUACCUCCUGAGAACUGCAUCAAGAUUCGAGGUCGUUUCUUUAUAUAAUCAUGUCAAAUAAUGCAUGAUAAAUGAGUAAGAGGCUCUAGGCAGUCAAACUCAAAGAAUUGUCUUCAAUUGUAUUGUCAUUUUAUCUCAUUUGAUAAUGAGUUGUAGCCGCAACUCAAAUCAUUUUUCAUUUUUUGAAAAUGAAGUAAAAGACCGGUUUAAAAAAUUAAAUAUC antisense: GAUAUUUAAUUUUUUAAACCGGUCUUUUACUUCAUUUUCAAAAAAUGAAAAAUGAUUUGAGUUGCGGCUACAACUCAUUAUCAAAUGAGAUAAAAUGACAAUACAAUUGAAGACAAUUCUUUGAGUUUGACUGCCUAGAGCCUCUUACUCAUUUAUCAUGCAUUAUUUGACAUGAUUAUAUAAAGAAACGACCUCGAAUCUUGAUGCAGUUCUCAGGAGGUAGGUGAAAUAUAUAAGAAAAUAGCAUCCAUAUGGAUGCUGUAAAUUGAAAGACCAAGGCUAUUUUUCUUGGUGUGUGUUGAAAUUUCAACUUUUACAUGACUUAUGAUCAUCGGUUAAAAAUUUUGCUUUGAGGAUCGUGUUAGCAGAUGGUAUAUAGUUUAGUCAGGACAAUAGUC | 1 ± 7 | 
